{"source": "paper PMC4024244", "about": "(Human genetics, 2013)", "data": [{"target": "T1, MuSK protein (Millipore) (UniProt O15146 24-495)", "T1 chain": "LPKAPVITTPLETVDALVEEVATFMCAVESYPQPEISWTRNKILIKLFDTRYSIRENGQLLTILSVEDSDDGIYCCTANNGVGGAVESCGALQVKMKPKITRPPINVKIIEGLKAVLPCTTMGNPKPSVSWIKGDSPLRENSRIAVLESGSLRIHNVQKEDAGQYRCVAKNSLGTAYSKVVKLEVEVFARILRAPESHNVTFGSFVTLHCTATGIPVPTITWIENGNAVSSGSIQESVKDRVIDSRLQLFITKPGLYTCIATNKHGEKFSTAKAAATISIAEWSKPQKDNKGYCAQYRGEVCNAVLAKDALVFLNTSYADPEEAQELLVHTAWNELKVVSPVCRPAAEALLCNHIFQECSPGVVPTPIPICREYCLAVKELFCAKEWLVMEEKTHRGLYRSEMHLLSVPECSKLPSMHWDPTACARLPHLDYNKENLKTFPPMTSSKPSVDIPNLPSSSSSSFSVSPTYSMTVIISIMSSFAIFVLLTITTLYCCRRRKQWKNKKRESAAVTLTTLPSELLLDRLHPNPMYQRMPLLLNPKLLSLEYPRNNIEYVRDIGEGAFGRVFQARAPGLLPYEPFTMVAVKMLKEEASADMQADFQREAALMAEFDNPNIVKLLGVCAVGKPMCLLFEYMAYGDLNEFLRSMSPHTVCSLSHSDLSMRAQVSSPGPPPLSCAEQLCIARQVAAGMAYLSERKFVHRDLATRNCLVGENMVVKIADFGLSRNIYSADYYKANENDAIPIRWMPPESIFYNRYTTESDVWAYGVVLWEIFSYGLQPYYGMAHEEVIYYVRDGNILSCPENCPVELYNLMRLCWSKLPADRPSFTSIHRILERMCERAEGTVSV", "assay": "plate overlay binding assay with", "units": {"other": "%"}, "values": [{"binder": "purified A12 asymmetric form of AChE with ColQ p.Cys397Ser (complex, human) chain 1: QPTFINSVLPISAALPSLDQKKRGGHKACCLLTPPPPPLFPPPFFRGGRSPLLSPDMKNLMLELETSQSPCMQGSLGSPGPPGPQGPPGLPGKTGPKGEKGELGRPGRKGRPGPPGVPGMPGPIGWPGPEGPRGEKGDLGMMGLPGSRGPMGSKGYPGSRGEKGSRGEKGDLGPKGEKGFPGFPGMLGQKGEMGPKGEPGIAGHRGPTGRPGKRGKQGQKGDSGVMGPPGKPGPSGQPGRPGPPGPPPAGQLIMGPKGERGFPGPPGRCLCGPTMNVNNPSYGESVYGPSSPRVPVIFVVNNQEELERLNTQNAIAFRRDQRSLYFKDSLGWLPIQLTPFYPVDYTADQHGTCGDGLLQPGEECDDGNSDVGDDSIRCHRAYCGDGHRHEGVEDCDGSDFGYLTCETYLPGSYGDLQCTQYCYIDSTPCRYFT chain 2: EGREDAELLVTVRGGRLRGIRLKTPGGPVSAFLGIPFAEPPMGPRRFLPPEPKQPWSGVVDATTFQSVCYQYVDTLYPGFEGTEMWNPNRELSEDCLYLNVWTPYPRPTSPTPVLVWIYGGGFYSGASSLDVYDGRFLVQAERTVLVSMNYRVGAFGFLALPGSREAPGNVGLLDQRLALQWVQENVAAFGGDPTSVTLFGESAGAASVGMHLLSPPSRGLFHRAVLQSGAPNGPWATVGMGEARRRATQLAHLVGCPPGGTGGNDTELVACLRTRPAQVLVNHEWHVLPQESVFRFSFVPVVDGDFLSDTPEALINAGDFHGLQVLVGVVKDEGSYFLVYGAPGFSKDNESLISRAEFLAGVRVGVPQVSDLAAEAVVLHYTDWLHPEDPARLREALSDVVGDHNVVCPVAQLAGRLAAQGARVYAYVFEHRASTLSWPLWMGVPHGYEIEFIFGIPLDPSRNYTAEEKIFAQRLMRYWANFARTGDPNEPRDPKAPQWPPYTAGAQQYVSLDLRPLEVRRGLRAQACAFWNRFLPKLLSATDTLDEAERQWKAEFHRWSSYMVHWKNQFDHYSKQDRCSDL", "other": 18}, {"binder": "purified A12 asymmetric form of AChE with ColQ p.Asp370Asn (complex, human) chain 1: QPTFINSVLPISAALPSLDQKKRGGHKACCLLTPPPPPLFPPPFFRGGRSPLLSPDMKNLMLELETSQSPCMQGSLGSPGPPGPQGPPGLPGKTGPKGEKGELGRPGRKGRPGPPGVPGMPGPIGWPGPEGPRGEKGDLGMMGLPGSRGPMGSKGYPGSRGEKGSRGEKGDLGPKGEKGFPGFPGMLGQKGEMGPKGEPGIAGHRGPTGRPGKRGKQGQKGDSGVMGPPGKPGPSGQPGRPGPPGPPPAGQLIMGPKGERGFPGPPGRCLCGPTMNVNNPSYGESVYGPSSPRVPVIFVVNNQEELERLNTQNAIAFRRDQRSLYFKDSLGWLPIQLTPFYPVDYTANQHGTCGDGLLQPGEECDDGNSDVGDDCIRCHRAYCGDGHRHEGVEDCDGSDFGYLTCETYLPGSYGDLQCTQYCYIDSTPCRYFT chain 2: EGREDAELLVTVRGGRLRGIRLKTPGGPVSAFLGIPFAEPPMGPRRFLPPEPKQPWSGVVDATTFQSVCYQYVDTLYPGFEGTEMWNPNRELSEDCLYLNVWTPYPRPTSPTPVLVWIYGGGFYSGASSLDVYDGRFLVQAERTVLVSMNYRVGAFGFLALPGSREAPGNVGLLDQRLALQWVQENVAAFGGDPTSVTLFGESAGAASVGMHLLSPPSRGLFHRAVLQSGAPNGPWATVGMGEARRRATQLAHLVGCPPGGTGGNDTELVACLRTRPAQVLVNHEWHVLPQESVFRFSFVPVVDGDFLSDTPEALINAGDFHGLQVLVGVVKDEGSYFLVYGAPGFSKDNESLISRAEFLAGVRVGVPQVSDLAAEAVVLHYTDWLHPEDPARLREALSDVVGDHNVVCPVAQLAGRLAAQGARVYAYVFEHRASTLSWPLWMGVPHGYEIEFIFGIPLDPSRNYTAEEKIFAQRLMRYWANFARTGDPNEPRDPKAPQWPPYTAGAQQYVSLDLRPLEVRRGLRAQACAFWNRFLPKLLSATDTLDEAERQWKAEFHRWSSYMVHWKNQFDHYSKQDRCSDL", "other": 15}]}, {"target": "T2, muscle-specific receptor tyrosine kinase (MuSK), wild type, expressed in HEK-293 (human, UniProt O15146 24-869)", "T2 sequence (looked up)": "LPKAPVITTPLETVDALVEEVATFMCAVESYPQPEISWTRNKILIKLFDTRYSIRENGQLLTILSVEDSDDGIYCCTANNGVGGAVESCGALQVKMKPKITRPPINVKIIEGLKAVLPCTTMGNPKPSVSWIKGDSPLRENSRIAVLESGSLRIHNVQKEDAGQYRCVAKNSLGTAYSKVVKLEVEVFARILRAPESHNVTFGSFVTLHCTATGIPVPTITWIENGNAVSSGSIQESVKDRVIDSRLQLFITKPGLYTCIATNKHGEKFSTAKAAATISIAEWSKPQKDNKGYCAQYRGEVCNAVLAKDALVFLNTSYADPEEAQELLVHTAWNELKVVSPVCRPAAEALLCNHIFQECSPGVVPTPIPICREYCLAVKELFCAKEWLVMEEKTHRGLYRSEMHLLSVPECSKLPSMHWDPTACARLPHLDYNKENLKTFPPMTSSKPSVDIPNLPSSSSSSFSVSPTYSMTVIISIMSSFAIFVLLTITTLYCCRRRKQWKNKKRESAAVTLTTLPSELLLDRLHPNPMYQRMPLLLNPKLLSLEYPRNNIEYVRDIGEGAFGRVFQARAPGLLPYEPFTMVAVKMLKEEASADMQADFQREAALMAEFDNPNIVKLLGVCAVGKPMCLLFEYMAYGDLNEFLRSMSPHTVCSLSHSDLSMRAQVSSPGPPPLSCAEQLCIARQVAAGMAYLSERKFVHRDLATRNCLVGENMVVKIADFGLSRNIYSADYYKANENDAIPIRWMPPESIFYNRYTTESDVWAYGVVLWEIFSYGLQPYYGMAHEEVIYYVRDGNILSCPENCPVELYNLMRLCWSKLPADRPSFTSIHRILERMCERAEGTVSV", "assay": "co-IP", "units": {"percent reduction of binding to MuSK against WT ColQ": "%"}, "values": [{"binder": "ColQ p.Asp370Asn (natural protein, human, UniProt Q9Y215-1 23-455, looked up) QPTFINSVLPISAALPSLDQKKRGGHKACCLLTPPPPPLFPPPFFRGGRSPLLSPDMKNLMLELETSQSPCMQGSLGSPGPPGPQGPPGLPGKTGPKGEKGELGRPGRKGRPGPPGVPGMPGPIGWPGPEGPRGEKGDLGMMGLPGSRGPMGSKGYPGSRGEKGSRGEKGDLGPKGEKGFPGFPGMLGQKGEMGPKGEPGIAGHRGPTGRPGKRGKQGQKGDSGVMGPPGKPGPSGQPGRPGPPGPPPAGQLIMGPKGERGFPGPPGRCLCGPTMNVNNPSYGESVYGPSSPRVPVIFVVNNQEELERLNTQNAIAFRRDQRSLYFKDSLGWLPIQLTPFYPVDYTANQHGTCGDGLLQPGEECDDGNSDVGDDCIRCHRAYCGDGHRHEGVEDCDGSDFGYLTCETYLPGSYGDLQCTQYCYIDSTPCRYFT", "percent reduction of binding to MuSK against WT ColQ": 1.5}, {"binder": "ColQ p.Tyr404Asp (natural protein, human, UniProt Q9Y215-1 23-455, looked up) QPTFINSVLPISAALPSLDQKKRGGHKACCLLTPPPPPLFPPPFFRGGRSPLLSPDMKNLMLELETSQSPCMQGSLGSPGPPGPQGPPGLPGKTGPKGEKGELGRPGRKGRPGPPGVPGMPGPIGWPGPEGPRGEKGDLGMMGLPGSRGPMGSKGYPGSRGEKGSRGEKGDLGPKGEKGFPGFPGMLGQKGEMGPKGEPGIAGHRGPTGRPGKRGKQGQKGDSGVMGPPGKPGPSGQPGRPGPPGPPPAGQLIMGPKGERGFPGPPGRCLCGPTMNVNNPSYGESVYGPSSPRVPVIFVVNNQEELERLNTQNAIAFRRDQRSLYFKDSLGWLPIQLTPFYPVDYTADQHGTCGDGLLQPGEECDDGNSDVGDDCIRCHRADCGDGHRHEGVEDCDGSDFGYLTCETYLPGSYGDLQCTQYCYIDSTPCRYFT", "percent reduction of binding to MuSK against WT ColQ": 7.4}, {"binder": "ColQ p.Cys397Ser (natural protein, human, UniProt Q9Y215-1 23-455, looked up) QPTFINSVLPISAALPSLDQKKRGGHKACCLLTPPPPPLFPPPFFRGGRSPLLSPDMKNLMLELETSQSPCMQGSLGSPGPPGPQGPPGLPGKTGPKGEKGELGRPGRKGRPGPPGVPGMPGPIGWPGPEGPRGEKGDLGMMGLPGSRGPMGSKGYPGSRGEKGSRGEKGDLGPKGEKGFPGFPGMLGQKGEMGPKGEPGIAGHRGPTGRPGKRGKQGQKGDSGVMGPPGKPGPSGQPGRPGPPGPPPAGQLIMGPKGERGFPGPPGRCLCGPTMNVNNPSYGESVYGPSSPRVPVIFVVNNQEELERLNTQNAIAFRRDQRSLYFKDSLGWLPIQLTPFYPVDYTADQHGTCGDGLLQPGEECDDGNSDVGDDSIRCHRAYCGDGHRHEGVEDCDGSDFGYLTCETYLPGSYGDLQCTQYCYIDSTPCRYFT", "percent reduction of binding to MuSK against WT ColQ": 6.7}, {"binder": "ColQ p.Gly423Val (natural protein, human, UniProt Q9Y215-1 23-455, looked up) QPTFINSVLPISAALPSLDQKKRGGHKACCLLTPPPPPLFPPPFFRGGRSPLLSPDMKNLMLELETSQSPCMQGSLGSPGPPGPQGPPGLPGKTGPKGEKGELGRPGRKGRPGPPGVPGMPGPIGWPGPEGPRGEKGDLGMMGLPGSRGPMGSKGYPGSRGEKGSRGEKGDLGPKGEKGFPGFPGMLGQKGEMGPKGEPGIAGHRGPTGRPGKRGKQGQKGDSGVMGPPGKPGPSGQPGRPGPPGPPPAGQLIMGPKGERGFPGPPGRCLCGPTMNVNNPSYGESVYGPSSPRVPVIFVVNNQEELERLNTQNAIAFRRDQRSLYFKDSLGWLPIQLTPFYPVDYTADQHGTCGDGLLQPGEECDDGNSDVGDDCIRCHRAYCGDGHRHEGVEDCDGSDFVYLTCETYLPGSYGDLQCTQYCYIDSTPCRYFT", "percent reduction of binding to MuSK against WT ColQ": 16.8}, {"binder": "ColQ p.Cys400Tyr (natural protein, human, UniProt Q9Y215-1 23-455, looked up) QPTFINSVLPISAALPSLDQKKRGGHKACCLLTPPPPPLFPPPFFRGGRSPLLSPDMKNLMLELETSQSPCMQGSLGSPGPPGPQGPPGLPGKTGPKGEKGELGRPGRKGRPGPPGVPGMPGPIGWPGPEGPRGEKGDLGMMGLPGSRGPMGSKGYPGSRGEKGSRGEKGDLGPKGEKGFPGFPGMLGQKGEMGPKGEPGIAGHRGPTGRPGKRGKQGQKGDSGVMGPPGKPGPSGQPGRPGPPGPPPAGQLIMGPKGERGFPGPPGRCLCGPTMNVNNPSYGESVYGPSSPRVPVIFVVNNQEELERLNTQNAIAFRRDQRSLYFKDSLGWLPIQLTPFYPVDYTADQHGTCGDGLLQPGEECDDGNSDVGDDCIRYHRAYCGDGHRHEGVEDCDGSDFGYLTCETYLPGSYGDLQCTQYCYIDSTPCRYFT", "percent reduction of binding to MuSK against WT ColQ": 5}]}]}
